Measurements reported in patent US20250051455A1 (Hoffmann-La Roche, published 2025).

What was measured:
[1] = target: T1, recombinant soluble human HLA-G β2M MHC class I complex, monomer (human); assay: ELISA (EC50 rel), biotinylated wt HLA-G monomer on streptavidin plate
T1 construct: His tagged; biotinylated where coated on streptavidin plates, non-biotinylated in SPR; also called HLA-G-0003; wt HLA-G (monomer)
Method: (§1) Streptavidin coated plates (Nunc, MicroCoat #11974998001) were coated with 25 μl/well biotinylated human wt HLA-G at a concentration of 250 ng/ml and incubated at 4° C. overnight. After washing (3×90 μl/well with PBST-buffer) 25 μl anti-HLA-G samples (1:3 dilution in OSEP buffer) or reference antibody (G233, Thermo/Pierce #MA1-19449, 500 ng/ml) were added and incubated 1 h at RT. After washing (3×90 μl/well with PBST-buffer) 25 μl/well goat-anti-mouse H+L-POD (Biorad #170-6561, 1:2000 in OSEP) or donkey-anti-rabbit IgG POD (GE #NA9340V, 1:5000 in OSE) was added and incubated at RT for 1 h on shaker. For detection of rat IgGs a mixture of goat-anti-rat IgG1-POD (Bethyl #A110-106P), goat-anti-rat IgG2a-POD (Bethyl #A110-109P) and goat-anti-rat IgG2b-POD (Bethyl #A110-111P) 1:10000 in OSEP was added and incubated at RT for 1 h on shaker. After washing (6×90 μl/well with PBST-buffer) 25 μl/well TMB substrate (Roche, 11835033001) was added and incubated until OD 2-3. Measurement took place on a Tecan Safire 2 instrument at 370/492 nm.
(§2) The above table summarizes the binding of different rat anti-human HLA-G monoclonal antibodies, derived from wt protein IMS both of wt as well as OMT rats. Shown are the relative EC50 values [ng/ml] and maximal OD of the respective binding to rec. wt monomeric HLA-G protein or the socalled gegrafted HLA-G (HLA-A consensus sequence on HLA-G backbone) protein as assessed by ELISA. The ELISA was set up by coating the biotinylated wt HLA-G or consensus antigen to strepdavidin plates. After incubation and washing steps, the respective antibodies were bound in a concentration range from 10-0 μg in 1:2 dilution steps. Detection of bound antibodies was carried out by anti-Fc-antibody-POD conjugates. EC50 values were determined from the resulting binding curves at the antibody concentrations generating the half-maximal signal.

[2] = target: human HLA-G expressed on cells (JEG3 natural; SKOV3 HLA-G+ and PA-TU-8902 HLA-G+ transfectants) (human); assay: cell-based or functional assay
[3] = target: T1, recombinant soluble human HLA-G β2M MHC …; assay: blocking ELISA on biotinylated wt HLA-G; competitor c-myc ILT-2
Method: Streptavidin coated plates (Nunc, MicroCoat #11974998001) were coated with 25 µl/well biotinylated human wt HLA-G at a concentration of 500-1000 ng/ml and incubated at 4° C. overnight. After washing (3×90 μl/well with PBST-buffer) 25 μl anti-HLA-G samples were added in decreasing concentrations starting at 10 or 3 μg/ml, then diluted in 1:3 or 1:2 steps and incubated 1 h at RT. After washing (3×90 μl/well with PBST-buffer) 25 μl/well c-myc-tagged recombinant ILT-2 receptor was added at a concentration of 200 ng/ml and incubated for 1 h at room temperature. […] After washing (3×90 μl/well with PBST-buffer), 25 μl/well TMB substrate (Roche, 11835033001) was added and incubated until OD 2-3. Measurement took place on a Tecan Safire 2 instrument at 370/492 nm
The table above summarizes the extent of ILT-2 and ILT-4 blocking of different antibodies bound to HLA-G at a concentration of 3 μg/ml, relative to an HLA-G:receptor interaction that is not blocked. HLA-G-0090 was tested in a separate experiment for ILT2 blockade, ILT4 blocking was not assessed

[4] = target: T1, recombinant soluble human HLA-G β2M MHC …; assay: ELISA, biotinylated wt HLA-G monomer on streptavidin plate
Method: as §1
as §2, with “IMS.” for “IMS both of wt as well as OMT rats.”, “[ng/ml]” for “[ng/ml] and maximal OD”, “monomeric, dimeric and trimeric” for “monomeric”, “proteins” for “protein or the socalled gegrafted HLA-G (HLA-A consensus sequence on HLA-G backbone) protein”, “HLA-G” for “HLA-G or consensus”, “signal. In case of the non-biotinylated HLA-G dimer and trimer antigens, immobilization was carried out by random coating on assay plates.” for “signal.”

[5] = target: T1, recombinant soluble human HLA-G β2M MHC …; assay: competition ELISA, one antibody concentration; competitor coated ILT2-Fc
Method: (§3) The ELISA was set up by coating the Fc tagged ILT2 and ILT4 respectively to Maxisorp microtiter plates. After incubation and washing steps, the respective antibodies were added at a concentration of 100 nM. Soluble His tagged monomeric, dimeric or trimeric HLA-G was added to the wells. After incubation and washing steps, detection of bound receptor was carried out by anti-His-antibody-POD conjugates.
(§4) The above tables summarize the blocking of interaction between rec. HLA-G proteins (monomer and oligomers) to its receptors ILT2 and ILT4 by the described HLAG antibodies at a concentration of 110 nM (*HLAG-0090 was tested at a concentration of 44 nM) as assessed by ELISA. Shown are the % inhibitions of the HLA-G/receptor interaction (for ILT2 and ILT4). The less pronounced ILT4 inhibition depends on the major β2M dependent interaction of this receptor.

[6] = target: T2, recombinant soluble human HLA-G β2M MHC class I complex, dimer (human); assay: as above
T2 construct: Non-biotinylated; also called HLA-G Dimer; dimeric HLA-G
Method: as §3, §4

[7] = target: T3, recombinant soluble human HLA-G β2M MHC class I complex, trimer (human); assay: as above
T3 construct: Non-biotinylated; also called HLA-G Trimer; trimeric HLA-G
Method: as §3, §4

B1: HLA-G-0090 (antibody, V domains shown)
VH: QVQLQQSGPGLLKPSQTLSLTCAISGDSVSSNRAAWNWIRQSPSRGLEWLGRTYYRSKWYNDYAVSVQGRITLIPDTSKNQFSLRLNSVTPEDTAVYYCASVRAVAPFDYWGQGVLVTVSS
VL: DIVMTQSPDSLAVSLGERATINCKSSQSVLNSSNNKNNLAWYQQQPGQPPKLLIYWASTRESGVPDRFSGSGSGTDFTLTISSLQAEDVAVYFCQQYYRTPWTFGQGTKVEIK
notes: Human antibody from humanized OmniRat (OMT) rats
EC50 [1]: 10.4 ng/mL | % TNF release (restoration) by monocytes (different donor) co-cultured with JEG-3 wt cells, LPS; antibody 0.16 µg/ml [2]: 198% | % TNF release (restoration) by monocytes (different donor) co-cultured with JEG-3 wt cells, LPS; antibody 0.63 µg/ml [2]: 219% | % TNF release (restoration) by monocytes (different donor) co-cultured with JEG-3 wt cells, LPS; antibody 2.5 µg/ml [2]: 233% | % TNF release (restoration) by monocytes (different donor) co-cultured with JEG-3 wt cells, LPS; antibody 10 µg/ml [2]: 221%

B2: HLA-G-0031 (antibody, V domains shown)
VH: QVKLMQSGAALVKPGTSVKMSCNASGYTFTDYWVSWVKQSHGKRLEWVGEISPNSGASNFDENFKDKATLTVDKSTSTAYMELSRLTSEDSAIYYCTRSSHGSFRWFAYWGQGTLVTVSS
VL: AIVLNQSPSSIVASQGEKVTITCRASSSVSSNHLHWYQQKPGAFPKFVIYSTSQRASGIPSRFSGSGSGTSYSFTISRVEAEDVATYYCQQGSSNPYTFGAGTKLELK
notes: Rat monoclonal antibody obtained from CD rats
EC50 [1]: 7.19 ng/mL | % inh. ILT2 (3 µg/ml antibody) [3]: 72.8% | EC50 [4]: 7.19 nM | % TNF release (restoration) by monocytes (different donor) co-cultured with JEG-3 wt cells, LPS; antibody 0.16 µg/ml [2]: 14% | % TNF release (restoration) by monocytes (different donor) co-cultured with JEG-3 wt cells, LPS; antibody 0.63 µg/ml [2]: 44% | % TNF release (restoration) by monocytes (different donor) co-cultured with JEG-3 wt cells, LPS; antibody 2.5 µg/ml [2]: 67% | % TNF release (restoration) by monocytes (different donor) co-cultured with JEG-3 wt cells, LPS; antibody 10 µg/ml [2]: 74% | % inhibition of ILT2 binding [5]: 101% | % inhibition of ILT2 binding [6]: 99% | % inhibition of ILT2 binding [7]: 100%

B3: HLA-G-0039 (antibody, V domains shown)
VH: EVQLLESGGGLVQPGGSLRLSCAASGFTFSSYAMNWVRQAPGKGLEWVSVISGSGVSTYYADSVKGRFTISRDNSRNTLSLQMNSLRAEDTAVYYCAKDGSYNYGYGDYFDYWGQGTLVTVSS
VL: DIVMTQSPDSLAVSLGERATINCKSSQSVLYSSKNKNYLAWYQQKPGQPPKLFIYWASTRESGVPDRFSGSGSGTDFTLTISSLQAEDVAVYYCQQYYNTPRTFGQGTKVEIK
notes: as for B1
EC50 [1]: 7.35 ng/mL | % inh. ILT2 (3 µg/ml antibody) [3]: 14% | EC50 [4]: 7.35 nM | % inhibition of ILT2 binding [5]: -450% | % inhibition of ILT2 binding [6]: 25% | % inhibition of ILT2 binding [7]: 70%

B4: HLA-G-0041 (antibody, V domains shown)
VH: EVQLLESGGGLVQPGGSLRLSCAASGFTFSTYGMSWVRQAPGKGLEWVSVISGGGVSTYYADSVKGRFTISRDNSKNTLYLQMNRLRAEDTAVYYCAKDGSYNYGYGDYFDYWGQGTLVTVSS
VL: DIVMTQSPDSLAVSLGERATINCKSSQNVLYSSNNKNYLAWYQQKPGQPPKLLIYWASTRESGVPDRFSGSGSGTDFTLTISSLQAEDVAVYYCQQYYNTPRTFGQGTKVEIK
notes: as for B1
EC50 [1]: 8.6 ng/mL | % inh. ILT2 (3 µg/ml antibody) [3]: 17.4% | EC50 [4]: 4.95 nM | % TNF release (restoration) by monocytes (different donor) co-cultured with JEG-3 wt cells, LPS; antibody 0.16 µg/ml [2]: 44% | % TNF release (restoration) by monocytes (different donor) co-cultured with JEG-3 wt cells, LPS; antibody 0.63 µg/ml [2]: 66% | % TNF release (restoration) by monocytes (different donor) co-cultured with JEG-3 wt cells, LPS; antibody 2.5 µg/ml [2]: 59% | % TNF release (restoration) by monocytes (different donor) co-cultured with JEG-3 wt cells, LPS; antibody 10 µg/ml [2]: 40% | % inhibition of ILT2 binding [5]: -437% | % inhibition of ILT2 binding [6]: 23% | % inhibition of ILT2 binding [7]: 67%
